One data set has as its target T1, SUMO-Ulp2^781–873 (S. cerevisiae, UniProt P40537 781-873).
T1 sequence (looked up): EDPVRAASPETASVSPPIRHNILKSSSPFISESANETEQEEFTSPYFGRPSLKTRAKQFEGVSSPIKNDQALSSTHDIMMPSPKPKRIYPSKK
Description: SEC-MALS.

The data set “crystal structure” concerns the molecule itself. Description: crystal structure.
Data set [1] addresses T2, Ulp2^825–844–Tof2^384–400 fusion (S. cerevisiae, UniProt P40537 825-844; Q02208 384-400).
T2 chain (looked up): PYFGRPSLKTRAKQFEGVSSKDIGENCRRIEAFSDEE
Description: co-expression in E. coli and co-purification.

Another data set has as its target T3, His6-Csm1 (full-length) (S. cerevisiae, UniProt P25651 1-190).
T3 sequence (looked up): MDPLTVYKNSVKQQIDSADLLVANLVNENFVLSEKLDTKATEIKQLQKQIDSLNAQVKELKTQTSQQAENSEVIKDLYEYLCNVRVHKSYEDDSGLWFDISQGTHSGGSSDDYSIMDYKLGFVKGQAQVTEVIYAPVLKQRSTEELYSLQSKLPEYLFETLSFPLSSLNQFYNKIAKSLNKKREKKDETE
Put plainly: pull-down.

Another data set concerns the target T4, His6-Csm1^69–190 (S. cerevisiae, UniProt P25651 69-190).
T4 sequence (looked up): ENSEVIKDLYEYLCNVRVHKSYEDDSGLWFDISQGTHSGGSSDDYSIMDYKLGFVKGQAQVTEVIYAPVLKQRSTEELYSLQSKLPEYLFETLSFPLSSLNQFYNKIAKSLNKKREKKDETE
Description: ITC.

B1: Csm1^69–181 (untagged, coexpressed) (domain or fragment, S. cerevisiae, UniProt P25651 69-181, looked up)
chain: ENSEVIKDLYEYLCNVRVHKSYEDDSGLWFDISQGTHSGGSSDDYSIMDYKLGFVKGQAQVTEVIYAPVLKQRSTEELYSLQSKLPEYLFETLSFPLSSLNQFYNKIAKSLNK
B1: the stoichiometry N (usually a count of units in the complex or per binding partner) with SUMO-Ulp2^781–873 is 1 Csm1 per Ulp2 (2:2); in “crystal structure”, 2.

B2: Csm1^69–190 (untagged, coexpressed) (domain or fragment, S. cerevisiae, UniProt P25651 69-190, looked up)
chain: ENSEVIKDLYEYLCNVRVHKSYEDDSGLWFDISQGTHSGGSSDDYSIMDYKLGFVKGQAQVTEVIYAPVLKQRSTEELYSLQSKLPEYLFETLSFPLSSLNQFYNKIAKSLNKKREKKDETE
On to B2, for which the “stoichiometry N” value in data set [1] is 1 Csm1 per fusion chain (2:2).

B3: GST-Ulp2^781–873 F827A (domain or fragment, S. cerevisiae, UniProt P40537 781-873, looked up)
chain: EDPVRAASPETASVSPPIRHNILKSSSPFISESANETEQEEFTSPYAGRPSLKTRAKQFEGVSSPIKNDQALSSTHDIMMPSPKPKRIYPSKK
Take B3: the binding result in the data set with His6-Csm1 (full-length) was “binds”.

B4: GST-Ulp2^781–873 F839A (domain or fragment, S. cerevisiae, UniProt P40537 781-873, looked up)
chain: EDPVRAASPETASVSPPIRHNILKSSSPFISESANETEQEEFTSPYFGRPSLKTRAKQAEGVSSPIKNDQALSSTHDIMMPSPKPKRIYPSKK
For B4, the binding result with His6-Csm1 (full-length) was “binds”.

B5: His6-GST-Ulp2^781–873 (domain or fragment, S. cerevisiae, UniProt P40537 781-873, looked up)
chain: EDPVRAASPETASVSPPIRHNILKSSSPFISESANETEQEEFTSPYFGRPSLKTRAKQFEGVSSPIKNDQALSSTHDIMMPSPKPKRIYPSKK
Consider B5, for which, in the data set with His6-Csm1^69–190, the Ka was 1.07e+06 M⁻¹, the dH is -36.04 ± 0.216 kJ/mol and the “stoichiometry N” value stood at 0.91 ± 0.004.

B6: His6-GST-Ulp2^781–873 F839D (domain or fragment, S. cerevisiae, UniProt P40537 781-873, looked up)
chain: EDPVRAASPETASVSPPIRHNILKSSSPFISESANETEQEEFTSPYFGRPSLKTRAKQDEGVSSPIKNDQALSSTHDIMMPSPKPKRIYPSKK
As for B6, in the data set with His6-Csm1^69–190, the Ka is 55800 M⁻¹, the dH is -4.51 ± 0.244 kJ/mol and the “stoichiometry N” value was found to be 0.46 ± 0.02.

These data come from publication PMC5435892 (Genes & Development, 2017).
